T1: mCD40 (Mus musculus, UniProt P27512)
T1 sequence (P27512 20-289): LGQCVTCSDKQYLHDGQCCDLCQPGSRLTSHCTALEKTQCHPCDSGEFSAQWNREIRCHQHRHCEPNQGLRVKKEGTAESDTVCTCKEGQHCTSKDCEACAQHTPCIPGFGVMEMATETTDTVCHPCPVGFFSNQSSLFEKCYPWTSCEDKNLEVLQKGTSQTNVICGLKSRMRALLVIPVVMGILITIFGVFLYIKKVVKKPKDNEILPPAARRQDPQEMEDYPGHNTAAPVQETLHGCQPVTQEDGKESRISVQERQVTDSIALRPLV

T2: murine CD47 on CT26 cells (Mus musculus, UniProt Q61735)
T2 construct: CT26 is a mouse colon carcinoma cell line which expresses CD47 on its cell surface; endogenous in cells; host or cells: CT26 mouse colon carcinoma cells
T2 sequence (Q61735 19-303): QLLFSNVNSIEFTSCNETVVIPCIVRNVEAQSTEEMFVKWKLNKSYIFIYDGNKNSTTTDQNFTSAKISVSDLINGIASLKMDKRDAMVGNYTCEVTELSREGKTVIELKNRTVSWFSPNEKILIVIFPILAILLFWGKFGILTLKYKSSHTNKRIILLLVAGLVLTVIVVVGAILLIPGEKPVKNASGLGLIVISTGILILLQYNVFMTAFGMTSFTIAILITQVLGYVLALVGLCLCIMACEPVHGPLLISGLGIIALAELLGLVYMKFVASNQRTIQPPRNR


Columns and labels:
[1] = system: anti-mCD40L antibody; experiment: CD40 ELISA binding assay of supernatants, detection by antibody; settings: clarified supernatant
[2] = CD40 ELISA binding assay, control coatings; settings: clarified supernatant
[3] = target: T1, mCD40; experiment: CD40 ELISA binding assay of supernatants; settings: clarified supernatant
[4] = target: T2, murine CD47 on CT26 cells; experiment: Competition assay on CT26 cells (flow cytometry); assay type: cell-based; settings: secreted FD6x2sirpα or FD6sirpαhIgG4
Procedure: Next, a competition assay was conducted to determine whether the murine SIRPα secreted by the genetically engineered bacteria could compete with the binding of a recombinant mSIRPα or an anti-CD47 antibody to murine CD47 on CT26 cells. CT26 cells were grown and flow cytometry protocol was conducted essentially as described above except that recombinant SIRPα (Rndsystems) or an anti-CD47 antibody (Biolegend) was added during the incubation of the secreted FD6×2sirpα or FD6sirpαhIgG4. FIG. 29 and FIG. 30 show the results of the competition with recombinant SIRPalpha and anti-CD47 antibody, respectively.

| Molecule | ELISA signal, coating Anti-mCD40L [1] | ELISA signal, coating IgG [2] | ELISA signal, coating PBS [2] | ELISA signal, coating mCD40 [3] | Competition with secreted SIRPalpha for binding to CD47 on CT26 cells [4] |
| --- | --- | --- | --- | --- | --- |
| Secreted CD40-L1: extracellular portion of murine CD40L secreted by SYN3366, in clarified supernatant (protein, left off: small tags and cut ends, extracellular portion of murine CD40L secreted by SYN3366, in clarified supernatant) HRRLDKVEEEVNLHEDFVFIKKLKRCNKGEGSLSLLNCEEMRRQFEDLVKDITLNKEEKKENSFEMQRGDEDPQIAAHVVSEANSNAASVLQWAKKGYYTMKSNLVMLENGKQLTVKREGLYYVYTQVTFCSNREPSSQRPFIVGLWLKPSSGSERILLKAANTHSSSQLCEQQSVHLGGVFELQAGASVFVNVTEASQVIHRVGFSSFGLLKL | 0.394 | 0.052 | 0.049 | 0.231 | – |
| recombinant SIRPalpha: recombinant SIRPα (Rndsystems) (protein) KELKVTQPEKSVSVAAGDSTVLNCTLTSLLPVGPIRWYRGVGPSRLLIYSFAGEYVPRIRNVSDTTKRNNMDFSIRISNVTPADAGIYYCVKFQKGSSEPDTEIQSGGGTEVYVLAKPSPPEVSGPADRGIPDQKVNFTCKSHGFSPRNITLKWFKDGQELHPLETTVNPSGKNVSYNISSTVRVVLNSMDVNSKVICEVAHITLDRSPLRGIANLSNFIRVSPTVKVTQQSPTSMNQVNLTCRAERFYPEDLQLIWLENGNVSRNDTPKNLTKNTDGTYNYTSLFLVNSSAHREDVVFTCQVKHDQQPAITRNHTVLGFAHSSDQGSMQTFPDNNATHNWN | – | – | – | – | able to compete |
| Secreted CD40-L2: soluble form of murine CD40L secreted by SYN3367, in clarified supernatant (protein, left off: small tags and cut ends) MQRGDEDPQIAAHVVSEANSNAASVLQWAKKGYYTMKSNLVMLENGKQLTVKREGLYYVYTQVTFCSNREPSSQRPFIVGLWLKPSSGSERILLKAANTHSSSQLCEQQSVHLGGVFELQAGASVFVNVTEASQVIHRVGFSSFGLLKL | 0.825 | 0.052 | 0.05 | 0.639 | – |
